Results: US20230375537A1

Columns and labels:
[1] = biological target: HER2 (as partner of the 'natural' / 'original' dissociation constants) (UniProt P04626); test: natural dissociation constant of the bought molecule outside the sensor; method not stated
[2] = biological target: HER2 (as partner of the 'natural' / 'original' dissociation constants) (UniProt P04626); test: natural dissociation constant of the molecule outside the sensor; method not stated

Kd [1] [nM]	Kd [2] [nM]	Substance
0.032		Anti-Her2 Affibody Molecule (anti-Her2 affibody molecule, Abcam) (designed binder)
	0.106	Z342-EGFP-Histag (a molecule having a polyhistidine tag and an anti-HER2 affibody to which a fluorescence group EGFP is fused) (designed binder)
